# Test results reported in patent US20230399393A1, “METHODS TO EXTEND HEALTH-SPAN AND TREAT AGE-RELATED DISEASES” (National University of Singapore, priority 2020, published 2023).
# B1: X203: mouse anti-mouse IL-11 IgG antagonist antibody; VH SEQ ID NO:22, VL SEQ ID NO:23 (antibody, V domains shown)
# VH: EVQLQQSGPELVKPGASVKIPCKASGYTFTDYNMDWVKQSHGKSLEWIGDINPHNGGPIYNQKFTGKATLTVDKSSSTAYMELRSLTSEDTAVYYCARGELGHWYFDVWGTGTTVTVSS
# VL: DIVLTQSPASLAVSLGQRATISCRASKSVSTSGYSYIHWYQQKPGQPPKLLIYLASNLDSGVPARFSGSGSGTDFTLNIHPVEEEDAATYYCQHSRDLPPTFGGGTKLEIK
# Assays:
# C57Bl/6J mice [1] = test: Body-composition assessment via echo MRI; format: in vivo, mouse; details: baseline age 55 weeks vs 108-109 weeks, vs IgG control
# Procedure: From age 55 weeks (human equivalent of ˜45 years old (i.e. middle age)) to age 110 weeks (human equivalent of ˜75 years old), mice were administered with 40 mg/kg of either X203 or isotype-matched control IgG via intra-peritoneal injection every 3 weeks.
# Mice also underwent body-composition assessment via echo MRI both at baseline (age 55 weeks) and at 108-109 weeks. This enabled calculation of the change in body fat mass and lean (muscle) mass in the X203 and IgG control treatment groups. Gastrocnemius and soleus muscles were also harvested from the mice at age 110 weeks and their weights were recorded. Data were analysed by 2-way ANOVA.
# End-point total body fat and lean mass measurements were performed 2 days prior to sacrifice by EchoMRI analysis using 4in1 Body Composition Analyzer for Live Small Animal.
# C57Bl/6J mice [2] = test: Renal function: blood urea nitrogen (BUN) and creatinine; format: in vivo, mouse
# Procedure: C57Bl/6J mice are randomised to receive either X203 or IgG control antibody at a dose of 40 mg/kg via IP injection every 3 weeks from age 55 weeks to age 110 weeks, and renal function was evaluated by analysis of serum levels of blood urea nitrogen (BUN) and creatinine using the Urea Assay Kit (ab83362, Abcam) and Creatinine Assay Kit (ab65340, Abcam) in accordance with the manufacturer's instructions.
# Levels of BUN and serum creatinine was also analysed in 12 week-old male and female C57Bl/6J mice, in order to determine baseline levels. Data were analysed by 2-way ANOVA.
# C57Bl/6J mice [3] = test: Metabolic function: serum/liver triglyceride, serum cholesterol, serum hydroxybutyrate; format: in vivo, mouse
# Procedure: C57Bl/6J mice were randomised to receive either X203 or IgG control antibody at a dose of 40 mg/kg via IP injection every 3 weeks from age 55 weeks to age 110 weeks, and serum triglyceride, liver triglyceride, serum cholesterol and serum p-hydroxybutyrate levels were measured using Triglyceride Assay Kit (ab65336, Abcam), Cholesterol Assay Kit (ab65390, Abcam), and Beta-Hydroxybutyrate Colorimetric Assay Kit (700190; Cayman chemicals), in accordance with the manufacturer's instructions. Levels of serum triglyceride, liver triglyceride, serum cholesterol and serum p-hydroxybutyrate were also analysed in 12 week-old male and female C57Bl/6J mice, in order to determine baseline levels. Data were analysed by 2-way ANOVA.
# [4] = test system: Primary human hepatocytes; test: Hepatocytes stimulated with IL-11, BSA or palmitate with X203, X209 or IgG, western blot; format: cell-based; details: 24 hours; antibody 2 μg/ml; IL11 10 ng/ml or palmitate 0.5 mM
# Procedure: FIG. 20. Western blot image showing the levels of p-ERK, ERK, p-P90RSK, P90RSK, p-LKB1, LKB1, p-AMPK, AMPK, p-Acetyl-CoA Carboxylase (p-ACC), Acetyl-CoA Carboxylase (ACC), p-mTOR, mTOR, p-p70S6K, p70S6K, p-S6RP, S6RP in primary human hepatocytes that are unstimulated (BL) or stimulated for 24 hours with either IL11, 0.5% BSA, or palmitate (saturated fatty acid) in the presence of X203, X209, or IgG (11E10) isotype control. IL11 (10 ng/ml), IgG/X203/X209 (2 μg/ml), palmitate (0.5 mM) conjugated in free BSA (0.5% BSA solution) in the ratio of 6:1.
# Primary human hepatocytes (stimulated with IL-11, BSA or palmitate, or unstimulated) were treated with X203 (anti-IL-11 antagonist antibody) and X209 (anti-IL-11Rα antagonist antibody). […] Treatment with X203 or X209 essentially reverses the effect of palmitate stimulation on these markers to the levels observed in the unstimulated control.
# [5] = treatment from age 55 to 110 weeks
molecule,measurement,setting,value
B1,fat mass gained (change in body fat mass),C57Bl/6J mice [1],significantly less
same,lean mass,C57Bl/6J mice [1],significantly greater
same,reduction in creatinine levels relative to IgG control,"C57Bl/6J mice [2]; female mice, baseline 12 week old female 0.77 mg/dl",43%
same,reduction in BUN levels relative to IgG control,"C57Bl/6J mice [2]; female mice, baseline mean BUN of 12 week old female mice 31.8 mg/dl",42%
same,reduction in creatinine levels relative to IgG control,"C57Bl/6J mice [2]; male mice, baseline 12 week old male 0.92 mg/dl",60%
same,reduction in BUN levels relative to IgG control,"C57Bl/6J mice [2]; male mice, baseline mean BUN of 12 week old male mice 51.3 mg/dl",79%
same,renal function,C57Bl/6J mice [2]; vs IgG control antibody,improved
same,reduction in serum triglyceride levels relative to IgG control,"C57Bl/6J mice [3]; female mice, baseline 12 week old female 37 mg/dl",47%
same,reduction in serum cholesterol levels relative to IgG control,"C57Bl/6J mice [3]; female mice, baseline 12 week old female 90 mg/dl",51%
same,reduction in liver triglyceride levels relative to IgG control,"C57Bl/6J mice [3]; female mice, baseline 12 week old female 130 mg/g",54%
same,reduction in serum triglyceride levels relative to IgG control,"C57Bl/6J mice [3]; male mice, baseline 12 week old male 54 mg/dl",65%
same,reduction in serum cholesterol levels relative to IgG control,"C57Bl/6J mice [3]; male mice, baseline 12 week old male 149 mg/dl",45%
same,reduction in liver triglyceride levels relative to IgG control,"C57Bl/6J mice [3]; male mice, baseline 12 week old male 165 mg/g",71%
same,"aging-associated hypertriglyceridemia, steatosis (liver fat accumulation) and hypercholesterolemia",C57Bl/6J mice [3]; [5],reduce
same,levels of circulating β-hydroxybutyrate,C57Bl/6J mice [3]; [5],increase
same,levels of p-AMPK and p-ACC,[4],increase
same,"levels of phosphorylated markers p-ERK, p-p90RSK, p-LKB1, p-mTOR, p-p70S6K and p-S6RP",[4],reduces
